Molecular target: HLA-A2-negative cells (HL-60, K562, primary AML 120B, normal cells of HLA-A2-negative donors)
Assay: cell-based or functional assay

B1: ESK2 caTCR clone #34 (AbTCR), expressed on primary T cells (protein)
VH: QVQLVQSGTEVRKPGASLKVSCTTSGYIFTGYYIHWVRQVPGQGLEWMGWINPNSGVTEFAQGFQGRITMTRDTSTSTVYMELSRLTSDDTAVYYCAREGVWGYYDSWGQGTLVTVSS
VL: SSELTQDPAVSVALGQTVRITCQGDSLRSYYASWYQQKPGQAPVLVIYDKNNRPSGIPDRFSGSSSGNTASLTITGAQAEDEADYYCNSRDSSGNHHVVFGGGTKLTVLG
B1 showed a Reduction of CD33+ cells (%), AbTCR-CSR #34 T cells (with anti-CD33 CSR), primary AML 120B (HLA-A*02:01 -) of 2.3%.
